Data from patent US20200390853A1, “ACTIVE PEPTIDE FOR ENHANCING THE PHAGOCYTIC FUNCTIONS OF RETINAL PIGMENT EPITHELIUM AND A USE THEREOF” (Beijing Tongren Hospital, Capital Medical University, priority 2019, published 2020).

Tests used:
RPE cells = assay: Model of in vitro RPE phagocytosis (disc membrane uptake, laser confocal); type: cell-based; conditions: after 3 h of RPE phagocytosis, p<0.05 between groups
[1] = system: AKT phosphorylation level downstream of MerTK; assay: AKT phosphorylation level in RPE cells cultivated in vitro (Western blotting, pAKT/GAPDH); type: cell-based; conditions: 200 ng/ml and 800 ng/ml, 30 minutes, vs blank control
Protocol: Segmented cloning was conducted according to the functional domain of Gas6 protein, wherein the sequence of EGF-LamininG functional domain is the primary active peptide sequence (G3, named as Gas6-LamininG active peptide).

B1: Gas6-LamininG active peptide: sequence of EGF-LamininG functional domain of Gas6 protein, amino acid sequence SEQ ID NO.1 (protein)
chain: DQCTPNPCDRKGTQACQDLMGNFFCLCKAGWGGRLCDKDVNECSQENGGCLQICHNKPGSFHCSCHSGFELSSDGRTCQDIDECADSEACGEARCKNLPGSYSCLCDEGFAYSSQEKACRDVDECLQGRCEQVCVNSPGSYTCHCDGRGGLKLSQDMDTCEDILPCVPFSVAKSVKSLYLGRMFSGTPVIRLRFKRLQPTRLVAEFDFRTFDPEGILLFAGGHQDSTWIVLALRAGRLELQLRYNGVGRVTSSGPVINHGMWQTISVEELARNLVIKVNRDAVMKIAVAGDLFQPERGLYHLNLTVGGIPFHEKDLVQPINPRLDGCMRSWNWLNGEDTTIQETVKVNTRMQCFSVTERGSFYPGSGFAFYSLDYMRTPLDVGTESTWEVEVVAHIRPAADTGVLFALWAPDLRAVPLSVALVDYHSTKKLKKQLVVLAVEHTALALMEIKVCDGQEHVVTVSLRDGEATLEVDGTRGQSEVSAAQLQERLAVLERHLRSPVLTFAGGLPDVPVTSAPVTAFYRGCMTLEVNRRLLDLDEAAYKHSDITAHSCPPVEPAAA
modifications: the amino acid sequence of the active peptide
contents of disc membranes taken up (RPE phagocytosis capacity) (RPE cells): an effect of enhancing the phagocytic functions of retinal pigment epithelium | Akt phosphorylation level (relative gray value of pAKT/GAPDH) [1]: significantly upregulating Akt phosphorylation levels

B2: Gas6 full-length proteins: Gas6 full-length proteins used as comparator (protein, UniProt Q14393 1-678, looked up)
chain: MAPSLSPGPAALRRAPQLLLLLLAAECALAALLPAREATQFLRPRQRRAFQVFEEAKQGHLERECVEELCSREEAREVFENDPETDYFYPRYLDCINKYGSPYTKNSGFATCVQNLPDQCTPNPCDRKGTQACQDLMGNFFCLCKAGWGGRLCDKDVNECSQENGGCLQICHNKPGSFHCSCHSGFELSSDGRTCQDIDECADSEACGEARCKNLPGSYSCLCDEGFAYSSQEKACRDVDECLQGRCEQVCVNSPGSYTCHCDGRGGLKLSQDMDTCEDILPCVPFSVAKSVKSLYLGRMFSGTPVIRLRFKRLQPTRLVAEFDFRTFDPEGILLFAGGHQDSTWIVLALRAGRLELQLRYNGVGRVTSSGPVINHGMWQTISVEELARNLVIKVNRDAVMKIAVAGDLFQPERGLYHLNLTVGGIPFHEKDLVQPINPRLDGCMRSWNWLNGEDTTIQETVKVNTRMQCFSVTERGSFYPGSGFAFYSLDYMRTPLDVGTESTWEVEVVAHIRPAADTGVLFALWAPDLRAVPLSVALVDYHSTKKLKKQLVVLAVEHTALALMEIKVCDGQEHVVTVSLRDGEATLEVDGTRGQSEVSAAQLQERLAVLERHLRSPVLTFAGGLPDVPVTSAPVTAFYRGCMTLEVNRRLLDLDEAAYKHSDITAHSCPPVEPAAA
modifications: full-length
notes: Gas6 full-length proteins used as comparator
Akt phosphorylation level (relative gray value of pAKT/GAPDH) [1]: significantly upregulating Akt phosphorylation levels
